According to US12630600B2 (MEDIMMUNE LIMITED, priority 2022, dated 2026):
Starred links: 1 amine or outer side, 2 acyl side, 3 side chain; linkers in the order of their positions; H or OH if unused. Non-standard residues stand in square brackets, D forms with d. Groups on a side chain read outwards from the residue. Primed or numbered codes have the meaning given here. No end group written: not given here. *: point of attachment. PEG12 = NCCOCCOCCOCCOCCOCCOCCOCCOCCOCCOCCOCCOCCC(=O)O; C18 diacid = O=C(O)CCCCCCCCCCCCCCCCC(=O)*; PEG8 = NCCOCCOCCOCCOCCOCCOCCOCCOCCC(=O)O; Dip = N[C@H](C(=O)O)C(c1ccccc1)c1ccccc1; γGlu = O=C(O)[C@H](CCC(=O)[*:2])N[*:1]; Stearoyl = CCCCCCCCCCCCCCCCCC(=O)*; Palmitoyl = CCCCCCCCCCCCCCCC(=O)*; αMeF = C[C@](N)(Cc1ccccc1)C(=O)O; Myristoyl = CCCCCCCCCCCCCC(=O)*; (PEG)2 = polyethylene glycol 2; PEG2′ = polyethylene glycol 2; PEG4 = NCCOCCOCCOCCOCCC(=O)O; PEG4′ = polyethylene glycol; Dodecyl = CCCCCCCCCCCC*; PEG2 = NCCOCCOCCC(=O)O; AEEA = NCCOCCOCC(=O)O; Aib = CC(C)(N)C(=O)O

B1: Peptide 6 (peptide)
peptide: H[Aib]HGS[αMeF]TSDVSK[αMeF]LDSK([AEEA-AEEA-γGlu-C18 diacid])AAQD[αMeF]VEWIAN-NH2
modifications: N-terminus assumed
SMILES: CC[C@H](C)[C@H](NC(=O)[C@H](Cc1c[nH]c2ccccc12)NC(=O)[C@H](CCC(=O)O)NC(=O)[C@@H](NC(=O)[C@](C)(Cc1ccccc1)NC(=O)[C@H](CC(=O)O)NC(=O)[C@H](CCC(N)=O)NC(=O)[C@H](C)NC(=O)[C@H](C)NC(=O)[C@H](CCCCNC(=O)COCCOCCNC(=O)COCCOCCNC(=O)CC[C@H](NC(=O)CCCCCCCCCCCCCCCCC(=O)O)C(=O)O)NC(=O)[C@H](CO)NC(=O)[C@H](CC(=O)O)NC(=O)[C@H](CC(C)C)NC(=O)[C@](C)(Cc1ccccc1)NC(=O)[C@H](CCCCN)NC(=O)[C@H](CO)NC(=O)[C@@H](NC(=O)[C@H](CC(=O)O)NC(=O)[C@H](CO)NC(=O)[C@@H](NC(=O)[C@](C)(Cc1ccccc1)NC(=O)[C@H](CO)NC(=O)CNC(=O)[C@H](Cc1c[nH]cn1)NC(=O)C(C)(C)NC(=O)[C@@H](N)Cc1c[nH]cn1)[C@@H](C)O)C(C)C)C(C)C)C(=O)N[C@@H](C)C(=O)N[C@@H](CC(N)=O)C(N)=O
B2: Peptide 55 (peptide)
peptide: HSQGS[αMeF]TSDVSK[Dip]LDSK([(PEG)2-(PEG)2-γGlu-γGlu-Stearoyl])AAQD[αMeF]VQ[Dip]LEA-NH2
B3: Peptide 56 (peptide)
peptide: HSQGS[αMeF]TSDVSK[Dip]LDSK([PEG4-γGlu-γGlu-Stearoyl])AAQD[αMeF]VE[Aib]IINT-NH2
modifications: N-terminus assumed
SMILES: CCCCCCCCCCCCCCCCCC(=O)N[C@@H](CCC(=O)N[C@@H](CCC(=O)NCCOCCOCCOCCOCCC(=O)NCCCC[C@H](NC(=O)[C@H](CO)NC(=O)[C@H](CC(=O)O)NC(=O)[C@H](CC(C)C)NC(=O)[C@@H](NC(=O)[C@H](CCCCN)NC(=O)[C@H](CO)NC(=O)[C@@H](NC(=O)[C@H](CC(=O)O)NC(=O)[C@H](CO)NC(=O)[C@@H](NC(=O)[C@](C)(Cc1ccccc1)NC(=O)[C@H](CO)NC(=O)CNC(=O)[C@H](CCC(N)=O)NC(=O)[C@H](CO)NC(=O)[C@@H](N)Cc1c[nH]cn1)[C@@H](C)O)C(C)C)C(c1ccccc1)c1ccccc1)C(=O)N[C@@H](C)C(=O)N[C@@H](C)C(=O)N[C@@H](CCC(N)=O)C(=O)N[C@@H](CC(=O)O)C(=O)N[C@@](C)(Cc1ccccc1)C(=O)N[C@H](C(=O)N[C@@H](CCC(=O)O)C(=O)NC(C)(C)C(=O)N[C@H](C(=O)N[C@H](C(=O)N[C@@H](CC(N)=O)C(=O)N[C@H](C(N)=O)[C@@H](C)O)[C@@H](C)CC)[C@@H](C)CC)C(C)C)C(=O)O)C(=O)O
B4: Peptide 57 (peptide)
peptide: HSQGS[αMeF]TSDVSK[Dip]LDSK([PEG8-γGlu-γGlu-Stearoyl])AAQD[αMeF]VE[Aib]IINT-NH2
modifications: N-terminus assumed
SMILES: CCCCCCCCCCCCCCCCCC(=O)N[C@@H](CCC(=O)N[C@@H](CCC(=O)NCCOCCOCCOCCOCCOCCOCCOCCOCCC(=O)NCCCC[C@H](NC(=O)[C@H](CO)NC(=O)[C@H](CC(=O)O)NC(=O)[C@H](CC(C)C)NC(=O)[C@@H](NC(=O)[C@H](CCCCN)NC(=O)[C@H](CO)NC(=O)[C@@H](NC(=O)[C@H](CC(=O)O)NC(=O)[C@H](CO)NC(=O)[C@@H](NC(=O)[C@](C)(Cc1ccccc1)NC(=O)[C@H](CO)NC(=O)CNC(=O)[C@H](CCC(N)=O)NC(=O)[C@H](CO)NC(=O)[C@@H](N)Cc1c[nH]cn1)[C@@H](C)O)C(C)C)C(c1ccccc1)c1ccccc1)C(=O)N[C@@H](C)C(=O)N[C@@H](C)C(=O)N[C@@H](CCC(N)=O)C(=O)N[C@@H](CC(=O)O)C(=O)N[C@@](C)(Cc1ccccc1)C(=O)N[C@H](C(=O)N[C@@H](CCC(=O)O)C(=O)NC(C)(C)C(=O)N[C@H](C(=O)N[C@H](C(=O)N[C@@H](CC(N)=O)C(=O)N[C@H](C(N)=O)[C@@H](C)O)[C@@H](C)CC)[C@@H](C)CC)C(C)C)C(=O)O)C(=O)O
B5: Peptide 7 (peptide)
peptide: H[Aib]HGS[αMeF]TSDVSK[αMeF]LDSK([γGlu-C18 diacid])AAQD[αMeF]VEWIANT-NH2
modifications: N-terminus assumed
SMILES: CC[C@H](C)[C@H](NC(=O)[C@H](Cc1c[nH]c2ccccc12)NC(=O)[C@H](CCC(=O)O)NC(=O)[C@@H](NC(=O)[C@](C)(Cc1ccccc1)NC(=O)[C@H](CC(=O)O)NC(=O)[C@H](CCC(N)=O)NC(=O)[C@H](C)NC(=O)[C@H](C)NC(=O)[C@H](CCCCNC(=O)CC[C@H](NC(=O)CCCCCCCCCCCCCCCCC(=O)O)C(=O)O)NC(=O)[C@H](CO)NC(=O)[C@H](CC(=O)O)NC(=O)[C@H](CC(C)C)NC(=O)[C@](C)(Cc1ccccc1)NC(=O)[C@H](CCCCN)NC(=O)[C@H](CO)NC(=O)[C@@H](NC(=O)[C@H](CC(=O)O)NC(=O)[C@H](CO)NC(=O)[C@@H](NC(=O)[C@](C)(Cc1ccccc1)NC(=O)[C@H](CO)NC(=O)CNC(=O)[C@H](Cc1c[nH]cn1)NC(=O)C(C)(C)NC(=O)[C@@H](N)Cc1c[nH]cn1)[C@@H](C)O)C(C)C)C(C)C)C(=O)N[C@@H](C)C(=O)N[C@@H](CC(N)=O)C(=O)N[C@H](C(N)=O)[C@@H](C)O
B6: Peptide 58 (peptide)
peptide: HSQGS[αMeF]TSDVSK[Dip]LDSK([PEG12-γGlu-γGlu-Stearoyl])AAQD[αMeF]VE[Aib]IINT-NH2
modifications: N-terminus assumed
SMILES: CCCCCCCCCCCCCCCCCC(=O)N[C@@H](CCC(=O)N[C@@H](CCC(=O)NCCOCCOCCOCCOCCOCCOCCOCCOCCOCCOCCOCCOCCC(=O)NCCCC[C@H](NC(=O)[C@H](CO)NC(=O)[C@H](CC(=O)O)NC(=O)[C@H](CC(C)C)NC(=O)[C@@H](NC(=O)[C@H](CCCCN)NC(=O)[C@H](CO)NC(=O)[C@@H](NC(=O)[C@H](CC(=O)O)NC(=O)[C@H](CO)NC(=O)[C@@H](NC(=O)[C@](C)(Cc1ccccc1)NC(=O)[C@H](CO)NC(=O)CNC(=O)[C@H](CCC(N)=O)NC(=O)[C@H](CO)NC(=O)[C@@H](N)Cc1c[nH]cn1)[C@@H](C)O)C(C)C)C(c1ccccc1)c1ccccc1)C(=O)N[C@@H](C)C(=O)N[C@@H](C)C(=O)N[C@@H](CCC(N)=O)C(=O)N[C@@H](CC(=O)O)C(=O)N[C@@](C)(Cc1ccccc1)C(=O)N[C@H](C(=O)N[C@@H](CCC(=O)O)C(=O)NC(C)(C)C(=O)N[C@H](C(=O)N[C@H](C(=O)N[C@@H](CC(N)=O)C(=O)N[C@H](C(N)=O)[C@@H](C)O)[C@@H](C)CC)[C@@H](C)CC)C(C)C)C(=O)O)C(=O)O
B7: Peptide 59 (peptide)
peptide: HSQGS[αMeF]TSDVSK[Dip]LDSK([γGlu-γGlu-(PEG)2-(PEG)2-Stearoyl])AAQD[αMeF]VE[Aib]IINT-NH2
B8: Peptide 60 (peptide)
peptide: HSQGS[αMeF]TSDVSK[Dip]LDSK([γGlu-(PEG)2-γGlu-(PEG)2-Stearoyl])AAQD[αMeF]VE[Aib]IINT-NH2
B9: Peptide 61 (peptide)
peptide: HSQGS[αMeF]TSDVSK[Dip]LDSK([(PEG)2-γGlu-(PEG)2-γGlu-Stearoyl])AAQD[αMeF]VE[Aib]IINT-NH2
B10: Peptide 62 (peptide)
peptide: HSQGS[αMeF]TSDVSK[Dip]LDSK([(PEG)2-(PEG)2-γGlu-γGlu-Dodecyl])AAQD[αMeF]VE[Aib]IINT-NH2
B11: Peptide 63 (peptide)
peptide: HSQGS[αMeF]TSDVSK[Dip]LDSK([(PEG)2-(PEG)2-γGlu-γGlu-Myristoyl])AAQD[αMeF]VE[Aib]IINT-NH2
B12: Peptide 64 (peptide)
peptide: HSQGS[αMeF]TSDVSK[Dip]LDSK([PEG2′-PEG2′-γGlu-γGlu-Palmitoyl])AAQD[αMeF]VE[Aib]IINT-NH2
B13: Peptide 65 (peptide)
peptide: HSQGS[αMeF]TSDVSK[Dip]LDSK([PEG2-PEG2-γGlu-γGlu-C18 diacid])AAQD[αMeF]VE[Aib]IINT-NH2
B14: Peptide 67 (peptide)
peptide: H[Aib]QGS[αMeF]TSDVSK[Dip]LDSK([PEG2′-PEG2′-γGlu-Palmitoyl])AAQD[αMeF]VQ[Aib]IAN-NH2
B15: Peptide 72 (peptide)
peptide: H[Aib]QGS[αMeF]TSDVSK[αMeF]LDSK([PEG4′-γGlu-γGlu-Palmitoyl])AAQD[αMeF]VE[Aib]LEAGG-NH2
B16: Peptide 79 (peptide)
peptide: HSQGS[αMeF]TSDVSK[αMeF]LDSK([PEG2′-PEG2′-γGlu-γGlu-Palmitoyl])AAQD[αMeF]VQ[Aib]LEAGG-NH2
B17: Peptide 80 (peptide)
peptide: HSQGS[αMeF]TSDVSK[αMeF]LDSKAAQD[αMeF]VQ[Aib]LEAGG-NH2
modifications: not fully specified (residue 17)
B18: Peptide 87 (peptide)
peptide: HSQGS[αMeF]TSDVSK[αMeF]LDSK([(PEG)2-(PEG)2-γGlu-γGlu-Palmitoyl])AAQD[αMeF]VQ[Aib]IAN-NH2

Biological target: human glucagon receptor (human, UniProt P47871)
Assay: cell-based or functional assay

Row | Binder | cAMP production, hGluc-R EC50 (pM)
1 | B1 | 516 pM
2 | B2 | 19.1 pM
3 | B3 | 10.9 pM
4 | B4 | 16.9 pM
5 | B5 | 30.7 pM
6 | B6 | 11.3 pM
7 | B7 | 28.4 pM
8 | B8 | 21.1 pM
9 | B9 | 9.55 pM
10 | B10 | 15.2 pM
11 | B11 | 2.49 pM
12 | B12 | 3.06 pM
13 | B13 | 2060 pM
14 | B14 | 9.49 pM
15 | B15 | 73.7 pM
16 | B16 | 10.7 pM
17 | B17 | 9.18 pM
18 | B18 | 8.46 pM

Biological target: human GLP-1 receptor (human, UniProt P43220)
Assay: cell-based or functional assay

Row | Binder | cAMP production, hGLP-1R EC50 (pM)
19 | B1 | 568 pM
20 | B2 | 18.8 pM
21 | B3 | 4.86 pM
22 | B4 | 9.09 pM
23 | B5 | 84.6 pM
24 | B6 | 3.9 pM
25 | B7 | 6.18 pM
26 | B8 | 5.16 pM
27 | B9 | 4.12 pM
28 | B10 | 10.1 pM
29 | B11 | 3.14 pM
30 | B12 | 2.57 pM
31 | B13 | 1230 pM
32 | B14 | 2.43 pM
33 | B15 | 3.42 pM
34 | B16 | 1.73 pM
35 | B17 | 1.03 pM
36 | B18 | 1.29 pM
